Values of other authors as cited in paper PMC3800467.

Biological target: RRGHYY peptide

TEM1 β-lactamase (from UniProt P62593)
Ki: 140 µM
